One block for each molecule: values may come before it.
What was measured:
[1] = Aggregates detection by Nanoparticle Tracking Analysis; format: physicochemical; conditions: after nebulization; for average counted particles per frame (NTA): 0.25 mg/ml
Description: 2.3.5 Aggregates Detection. Protein aggregates were visualized by Nanoparticle Tracking Analysis (NTA) (ZetaView, 220 Twin Laser, Particle Metrix, Ammersee, Germany), a technique used for measuring single particle size and concentration. NbE201, NbE201-PEG10 and NbE201-PEG40 solutions (0.25 mg/ml) were analysed before and after nebulization. 11 positions were analysed for which following parameters were used: • Laser wavelength: 488 nm • Scatter, no fluorescence • Sensitivity: 80 • Shutter: 100

hNE = molecular target: T1, hNE (Homo sapiens, UniProt P08246); assay: Spray-dried powder: hNE inhibition after solubilizing; format: biochemical; conditions: [hNE]:[ISVD] 1:1
T1 construct: purchased Elastin Products Company (EPC)
T1 sequence (P08246 30-247): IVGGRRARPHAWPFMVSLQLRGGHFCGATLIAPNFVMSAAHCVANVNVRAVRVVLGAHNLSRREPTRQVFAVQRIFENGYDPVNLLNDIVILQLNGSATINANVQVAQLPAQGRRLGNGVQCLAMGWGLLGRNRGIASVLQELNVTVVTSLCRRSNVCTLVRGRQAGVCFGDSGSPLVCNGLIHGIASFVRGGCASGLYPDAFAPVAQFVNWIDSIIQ
Description: Dry powders for inhalation were formulated with the NbE201 and the NbE201-PEG40. The spray dryer used was the PROCEPT's modular 4M8-Trix.
The inhibitory activity was also assessed after solubilizing the powders. The inhibitory capacity of the Nbs were assessed in an in vitro assay at a [hNE]:[ISVD] ratio of 1:1. The inhibition capacity of the solubilized powders was compared to the inhibition capacity of their respective controls (eg. untreated NbE201 or NbE201-PEG40). […] The protein concentration used to calculate the hNE: ISVD ratio was the concentration read after centrifugation.

[2] = molecular target: T2, proteolytic (elastase) activity of cystic fibrosis patient sputa (Homo sapiens, UniProt P08246); assay: Sputum proteolytic activity inhibition, cystic fibrosis sputa; format: biochemical
T2 construct: Sputa from patients with cystic fibrosis, COPD or ciliary diskenisia above 18 years old were collected; from tissue; host or cells: expectorated sputum of patients with cystic fibrosis, COPD or ciliary dyskinesia
T2 sequence (P08246 30-267): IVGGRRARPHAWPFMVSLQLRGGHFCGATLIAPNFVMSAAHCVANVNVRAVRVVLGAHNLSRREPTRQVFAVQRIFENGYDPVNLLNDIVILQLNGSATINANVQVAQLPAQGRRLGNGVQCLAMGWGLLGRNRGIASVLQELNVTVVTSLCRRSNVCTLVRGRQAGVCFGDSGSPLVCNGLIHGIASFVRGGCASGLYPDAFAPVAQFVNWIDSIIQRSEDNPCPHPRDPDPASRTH
Description: (§1) 2.2.2 Evaluation of the proteolytic activity inhibition in CF, COPD and ciliary diskenisia sputa. […] Sputa collection procedures were evaluated by the local ethic committee (comité d'Ethique Hospitalo-Facultaire des Cliniques universitaires Saint-Luc) and approved under the Belgian registration number B4032021000071.
(§2) Sputum proteolytic activity was assessed by following with a spectrophotometer the absorbance at 410 nm of suc-Ala-Ala-Pro-Val-pNA degradation, the chromogenic hNE substrate. Sputa were classified as mucoid, muco-purulent or purulent (Serisier et al., 2009, Respir Res, 10 (1): 63. doi: 10.1186/1465-9921-10-6). According to the experiment, 10 to 20 mg of sputum were weighted in a 96-well plate. ISVDs were then added to the sputum samples and pre-incubated at 37° C. during different periods of time. The hNE substrate was diluted to a concentration of 1 mM in a tris buffer (0.1M tris, 0.5M NaCl, 0.01% Sodium azide (NaN3), pH 7.5) and 50 μl of this solution were added to the wells. The substrate degradation was followed during 50 min. […] Slopes were then calculated from the regression line drawn from the absorbance measurements and were expressed as a percentage of the sputum proteolytic activity without ISVDs.

[3] = molecular target: T3, proteolytic activity of COPD patient sputum (Homo sapiens, UniProt P08246); assay: Sputum proteolytic activity inhibition, COPD sputum; format: biochemical; conditions: 15 mg sputum, COPD patient in exacerbation
T3 construct: Sputa from patients with cystic fibrosis, COPD or ciliary diskenisia above 18 years old were collected; from tissue; host or cells: expectorated sputum of patients with cystic fibrosis, COPD or ciliary dyskinesia
T3 sequence (P08246 30-267): T2 sequence (P08246 30-267)
Description: as §1, §2

[4] = Pharmacokinetic study, intratracheal instillation, BAL content by ELISA; format: in vivo, mice
Description: 2.5.1. Instillation of mice and collection of BAL. […] Broncho-alveolar lavages (BAL), nasal lavages (NAL), blood samples, and lungs were collected 0, 4 or 24 h after instillation. BAL and NAL were collected with 2 ml and 1 ml of Hanks' Balanced Salt Solution (HBSS) buffer respectively. Cells were discarded from BAL and NAL samples via a 5 min centrifugation at 300 g and supernatants were stored at −20° C. Lungs were collected in 0.5 ml of HBSS buffer, ground (Precellys evolution, Bertin Technologies, Montigny-le-bretonneux, France) and centrifuged at 300 g for 15 min. Supernatants were stored at −20° C. Blood was collected by intra-cardiac puncture and stored in anti-coagulant tubes (Microvette®) 500, K3 EDTA, VWR) at −20° C. All samples were treated with an anti-protease cocktail (Roche).
2.5.2. ELISA analysis. ISVD and AAT content in the BALs collected in vivo were measured by a sandwich ELISA method. An ELISA conversion pack from Meso scale Discovery (Rockville, USA) was used for ISVD analysis, according to the manufacturer instructions. Uncoated Mesoscale compatible plates were coated with an anti-histag antibody (BioLegend, San Diego, USA). ISVDs were then detected with an anti-VHH antibody (Jackson ImmunoResearch, Ely, UK) mixed with an anti-goat Sulfo-TAG labelled antibody (Meso scale Discovery) and the signal was read with an MESO QuickPlex SQ 120 MM (Meso scale Discovery). AAT content in the samples was measured by a commercial ELISA kit (Human Serpin Al DuoSet ELISA, R&D system, Mineapolis, USA) according to manufacturer instructions.

[5] = hNE + Solubilized powder, with aggregates
[6] = hNE + Solubilized powder, without aggregates (after centrifugation)

hNE Inhibition percentage (hNE; hNE + Control sdAb (untreated)): 70 ± 2% | hNE Inhibition percentage (hNE; [5]): 67 ± 2% | hNE Inhibition percentage (hNE; [6]): 72 ± 1% | sputum proteolytic activity inhibition at time 0, compared with NbE201 ([2]; exposure time 0): No significant difference
B1: NbE201-PEG40: NbE201-Cter conjugated via C-terminal cysteine to branched 40 kDa PEG-maleimide (conjugate)
VHH: QVQLQESGGGLVQAGGSLRLSCVVPGRTISLYRMGWFRQAPGKEREFVAGINWSGDMTDYVDSVKGRFTISRDNAKNTVYLEMNSLKPEDTAIYYCTADPKLLPLADSSYGYWGQGTQVTVSSSPSTPPTPSPSTPPC
average counted particles per frame (NTA) [1]: far below that threshold | inhibitory capacity in COPD sputum [3]: No apparent differences in inhibitory capacity | percentage of the dose collected at time 0 quantified in BAL after 24 h ([4]; Swiss mice): 65% | percentage of the dose collected at time 0 quantified in BAL after 24 h ([4]; β-ENaC mice): 56%

hNE Inhibition percentage (hNE; hNE + Control sdAb (untreated)): 76 ± 1% | hNE Inhibition percentage (hNE; [5]): 48 ± 5% | hNE Inhibition percentage (hNE; [6]): 78 ± 2%
B2: NbE201: anti-hNE ISVD (VHH/nanobody) from immunized lama, amino acid sequence SEQ ID NO: 4 (protein)
VHH: QVQLQESGGGLVQAGGSLRLSCVVPGRTISLYRMGWFRQAPGKEREFVAGINWSGDMTDYVDSVKGRFTISRDNAKNTVYLEMNSLKPEDTAIYYCTADPKLLPLADSSYGYWGQGTQVTVSS
average counted particles per frame (NTA) [1]: 228 | size of counted particles, percentile 10 [1]: 22.3±12 nm | size of counted particles, percentile 50 [1]: 138±8 nm | size of counted particles, percentile 90 [1]: 342.8±26 nm | inhibition of proteolytic activity in sputum samples ex vivo ([2]; cystic fibrosis sputa): able to inhibit the proteolytic activity in sputum samples ex vivo | sputum inhibition capacity over time ([2]; exposure 0 to 24 h): a loss of inhibitory capacity over time was observed | inhibitory capacity in COPD sputum [3]: No apparent differences in inhibitory capacity | percentage of the dose collected at time 0 quantified in BAL after 24 h ([4]; Swiss mice): 4.4% | percentage of the dose collected at time 0 quantified in BAL after 24 h ([4]; β-ENaC mice): 3.3%
